Assays:
SHP2-C SH2 = assay: SH2 binding enrichment of the phosphorylated peptide, bacterial display (enrichment ratio); higher = better substrate or ligand; peptides without Tyr show the background
Grb2 SH2 = Grb2 SH2 (UniProt P62993); assay: as above
c-Src SH2 = assay: as above
c-Src = assay: phosphorylation enrichment, bacterial display (enrichment ratio); higher = better substrate or ligand; peptides without Tyr show the background
Fyn = Fyn (UniProt P06241); assay: as above
c-Abl (mouse) = assay: as above
FGFR1 = FGFR1 (UniProt P11362); assay: as above
FGFR3 = FGFR3 (UniProt P22607); assay: as above
Fer (mouse) = assay: as above
EPHB2 = EPHB2 (UniProt P29323); assay: as above
Jak2 = Jak2 (UniProt O60674); assay: as above
AncSZ = assay: as above
Hck = Hck (UniProt P08631); assay: as above
MERTK = MERTK (UniProt Q12866); assay: as above
Fes = Fes (UniProt P07332); assay: as above
EPHB1 = EPHB1 (UniProt P54762); assay: as above
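Throughout, for SH2 binding enrichment of the phosphorylated peptide, bacterial display: peptide library displayed on the E. coli surface as eCPX fusions, selected cells deep-sequenced, score is each peptide's frequency after selection divided by its frequency in the input.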
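Throughout, for phosphorylation enrichment, bacterial display: 11-residue human phosphosite peptides and single-mutation variants displayed on the E. coli surface, counted by deep sequencing, each peptide's frequency after selection divided by its frequency in the unselected input library; frequency after pTyr selection over input frequency; kinase dosed for 20-30% of maximal phosphorylation in three min.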

Chain of Jak2 (O60674 whole entry, looked up): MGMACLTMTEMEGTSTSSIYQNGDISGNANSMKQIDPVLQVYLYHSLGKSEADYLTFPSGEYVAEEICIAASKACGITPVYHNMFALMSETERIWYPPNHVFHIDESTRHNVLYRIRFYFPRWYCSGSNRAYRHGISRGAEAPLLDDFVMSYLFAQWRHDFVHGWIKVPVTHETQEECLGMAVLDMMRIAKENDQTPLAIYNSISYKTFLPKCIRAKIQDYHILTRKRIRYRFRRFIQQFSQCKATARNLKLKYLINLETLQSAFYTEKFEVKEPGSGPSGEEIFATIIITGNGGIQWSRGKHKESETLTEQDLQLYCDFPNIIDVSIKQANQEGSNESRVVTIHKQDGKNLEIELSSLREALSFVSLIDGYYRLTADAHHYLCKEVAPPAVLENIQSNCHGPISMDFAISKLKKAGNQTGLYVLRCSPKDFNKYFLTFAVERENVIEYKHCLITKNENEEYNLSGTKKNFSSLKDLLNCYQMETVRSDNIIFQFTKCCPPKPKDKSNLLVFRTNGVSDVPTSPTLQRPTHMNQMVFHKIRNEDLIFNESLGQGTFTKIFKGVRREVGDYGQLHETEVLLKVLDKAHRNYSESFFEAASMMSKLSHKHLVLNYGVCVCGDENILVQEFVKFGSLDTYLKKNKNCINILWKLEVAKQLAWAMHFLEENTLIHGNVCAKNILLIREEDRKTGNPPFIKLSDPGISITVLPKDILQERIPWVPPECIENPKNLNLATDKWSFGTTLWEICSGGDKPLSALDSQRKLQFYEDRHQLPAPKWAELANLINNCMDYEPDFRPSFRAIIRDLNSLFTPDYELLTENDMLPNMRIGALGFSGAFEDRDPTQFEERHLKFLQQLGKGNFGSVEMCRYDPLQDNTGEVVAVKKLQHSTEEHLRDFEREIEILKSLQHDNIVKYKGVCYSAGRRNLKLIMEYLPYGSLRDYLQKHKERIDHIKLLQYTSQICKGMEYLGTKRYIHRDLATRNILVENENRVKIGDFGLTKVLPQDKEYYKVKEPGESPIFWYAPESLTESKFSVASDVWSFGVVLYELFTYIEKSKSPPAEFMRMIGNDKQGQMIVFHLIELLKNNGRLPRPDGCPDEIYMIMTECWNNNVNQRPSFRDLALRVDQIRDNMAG
Chain of FGFR3 (P22607 whole entry, looked up): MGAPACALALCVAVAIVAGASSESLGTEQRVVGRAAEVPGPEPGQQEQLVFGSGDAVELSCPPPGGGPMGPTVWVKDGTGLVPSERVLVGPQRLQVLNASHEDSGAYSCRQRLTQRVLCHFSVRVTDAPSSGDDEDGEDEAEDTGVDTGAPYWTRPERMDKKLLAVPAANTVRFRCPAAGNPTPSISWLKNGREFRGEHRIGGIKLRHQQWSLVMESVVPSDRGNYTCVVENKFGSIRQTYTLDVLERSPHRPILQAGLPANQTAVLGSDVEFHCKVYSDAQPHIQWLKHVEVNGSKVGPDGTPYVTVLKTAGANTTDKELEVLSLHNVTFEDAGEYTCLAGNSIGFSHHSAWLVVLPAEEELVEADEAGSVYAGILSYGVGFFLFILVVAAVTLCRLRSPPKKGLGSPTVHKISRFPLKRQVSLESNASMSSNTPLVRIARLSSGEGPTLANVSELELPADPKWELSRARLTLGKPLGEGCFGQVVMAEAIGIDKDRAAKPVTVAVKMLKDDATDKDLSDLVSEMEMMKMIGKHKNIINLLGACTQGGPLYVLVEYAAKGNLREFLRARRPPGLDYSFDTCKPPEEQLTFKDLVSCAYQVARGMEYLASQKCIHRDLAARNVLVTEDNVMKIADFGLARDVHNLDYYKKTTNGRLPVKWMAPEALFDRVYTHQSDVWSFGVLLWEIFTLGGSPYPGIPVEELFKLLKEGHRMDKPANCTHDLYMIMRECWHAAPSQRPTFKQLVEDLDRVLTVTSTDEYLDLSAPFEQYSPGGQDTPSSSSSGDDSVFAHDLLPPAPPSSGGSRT
Chain of MERTK (Q12866 whole entry, looked up): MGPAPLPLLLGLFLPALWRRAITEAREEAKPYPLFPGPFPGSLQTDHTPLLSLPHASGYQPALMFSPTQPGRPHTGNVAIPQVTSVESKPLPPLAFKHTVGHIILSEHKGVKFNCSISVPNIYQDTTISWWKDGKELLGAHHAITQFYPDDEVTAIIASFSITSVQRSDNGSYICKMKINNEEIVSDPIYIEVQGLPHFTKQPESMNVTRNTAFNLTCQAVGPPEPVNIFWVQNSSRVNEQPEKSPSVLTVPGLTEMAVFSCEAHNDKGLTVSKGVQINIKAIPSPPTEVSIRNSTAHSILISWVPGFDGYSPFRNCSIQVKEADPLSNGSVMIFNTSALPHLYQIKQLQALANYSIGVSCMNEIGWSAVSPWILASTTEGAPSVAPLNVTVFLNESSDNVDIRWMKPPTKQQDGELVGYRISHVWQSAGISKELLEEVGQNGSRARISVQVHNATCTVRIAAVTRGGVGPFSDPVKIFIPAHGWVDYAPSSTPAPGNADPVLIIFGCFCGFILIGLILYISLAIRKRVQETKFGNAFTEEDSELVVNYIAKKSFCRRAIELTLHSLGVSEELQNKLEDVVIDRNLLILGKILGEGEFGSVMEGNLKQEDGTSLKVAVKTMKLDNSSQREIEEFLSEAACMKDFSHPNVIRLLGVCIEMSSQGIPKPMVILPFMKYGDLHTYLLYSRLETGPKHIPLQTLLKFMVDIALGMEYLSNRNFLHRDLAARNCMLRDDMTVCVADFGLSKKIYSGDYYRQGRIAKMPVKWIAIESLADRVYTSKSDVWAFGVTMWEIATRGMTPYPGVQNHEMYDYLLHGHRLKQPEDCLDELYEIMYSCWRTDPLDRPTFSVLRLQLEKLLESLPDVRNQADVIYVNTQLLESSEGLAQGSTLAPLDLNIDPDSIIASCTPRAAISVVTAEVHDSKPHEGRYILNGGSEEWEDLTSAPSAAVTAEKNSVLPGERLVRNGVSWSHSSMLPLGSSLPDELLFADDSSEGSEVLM
Chain of Hck (P08631 whole entry, looked up): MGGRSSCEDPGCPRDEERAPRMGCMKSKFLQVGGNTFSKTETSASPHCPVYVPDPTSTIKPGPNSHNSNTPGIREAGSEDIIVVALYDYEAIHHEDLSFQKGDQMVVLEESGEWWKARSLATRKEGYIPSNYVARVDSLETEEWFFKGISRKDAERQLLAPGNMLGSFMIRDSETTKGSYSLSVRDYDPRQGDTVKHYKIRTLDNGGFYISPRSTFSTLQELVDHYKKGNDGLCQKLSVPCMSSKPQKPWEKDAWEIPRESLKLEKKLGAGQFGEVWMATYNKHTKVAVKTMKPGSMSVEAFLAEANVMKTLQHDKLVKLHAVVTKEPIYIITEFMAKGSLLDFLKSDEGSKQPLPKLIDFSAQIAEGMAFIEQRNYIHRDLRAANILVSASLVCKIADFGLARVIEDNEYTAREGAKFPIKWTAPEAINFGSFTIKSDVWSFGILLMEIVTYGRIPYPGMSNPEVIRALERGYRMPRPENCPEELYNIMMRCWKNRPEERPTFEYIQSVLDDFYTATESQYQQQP
Chain of Fyn (P06241 whole entry, looked up): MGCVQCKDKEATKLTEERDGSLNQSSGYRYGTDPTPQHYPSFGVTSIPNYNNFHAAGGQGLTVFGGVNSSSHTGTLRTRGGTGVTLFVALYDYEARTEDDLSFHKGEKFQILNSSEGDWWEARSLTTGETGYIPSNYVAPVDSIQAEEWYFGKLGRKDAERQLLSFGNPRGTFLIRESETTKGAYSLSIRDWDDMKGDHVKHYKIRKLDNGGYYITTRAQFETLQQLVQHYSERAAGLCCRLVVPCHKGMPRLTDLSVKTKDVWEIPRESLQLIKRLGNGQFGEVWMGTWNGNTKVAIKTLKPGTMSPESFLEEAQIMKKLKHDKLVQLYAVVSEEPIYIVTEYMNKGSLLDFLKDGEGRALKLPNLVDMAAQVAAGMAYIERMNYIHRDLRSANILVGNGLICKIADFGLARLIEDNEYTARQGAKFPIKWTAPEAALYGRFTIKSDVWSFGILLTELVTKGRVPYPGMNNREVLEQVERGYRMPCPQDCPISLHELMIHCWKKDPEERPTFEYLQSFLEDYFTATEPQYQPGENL
Chain of Fes (P07332 whole entry, looked up): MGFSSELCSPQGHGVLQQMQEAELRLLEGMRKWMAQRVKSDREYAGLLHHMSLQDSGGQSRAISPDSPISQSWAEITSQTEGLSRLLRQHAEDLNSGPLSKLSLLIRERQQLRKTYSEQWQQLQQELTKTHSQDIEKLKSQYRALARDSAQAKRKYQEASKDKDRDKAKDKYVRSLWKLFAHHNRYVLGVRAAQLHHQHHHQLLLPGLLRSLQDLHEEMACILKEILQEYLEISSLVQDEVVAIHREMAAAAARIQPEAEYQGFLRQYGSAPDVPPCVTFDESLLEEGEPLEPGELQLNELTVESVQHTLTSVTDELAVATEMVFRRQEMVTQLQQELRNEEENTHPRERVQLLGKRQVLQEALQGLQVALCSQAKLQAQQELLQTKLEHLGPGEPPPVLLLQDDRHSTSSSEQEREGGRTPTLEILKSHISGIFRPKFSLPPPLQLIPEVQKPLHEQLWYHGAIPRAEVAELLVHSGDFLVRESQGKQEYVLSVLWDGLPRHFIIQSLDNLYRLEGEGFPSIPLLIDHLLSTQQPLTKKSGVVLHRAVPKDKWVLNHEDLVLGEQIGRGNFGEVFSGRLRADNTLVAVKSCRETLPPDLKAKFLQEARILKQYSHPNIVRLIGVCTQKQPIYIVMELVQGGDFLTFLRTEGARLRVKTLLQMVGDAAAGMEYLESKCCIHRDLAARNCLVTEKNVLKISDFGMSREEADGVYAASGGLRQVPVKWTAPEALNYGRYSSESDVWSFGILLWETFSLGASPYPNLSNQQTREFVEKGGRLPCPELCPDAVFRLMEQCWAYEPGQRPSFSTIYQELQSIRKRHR
Chain of Grb2 SH2 (P62993 whole entry, looked up): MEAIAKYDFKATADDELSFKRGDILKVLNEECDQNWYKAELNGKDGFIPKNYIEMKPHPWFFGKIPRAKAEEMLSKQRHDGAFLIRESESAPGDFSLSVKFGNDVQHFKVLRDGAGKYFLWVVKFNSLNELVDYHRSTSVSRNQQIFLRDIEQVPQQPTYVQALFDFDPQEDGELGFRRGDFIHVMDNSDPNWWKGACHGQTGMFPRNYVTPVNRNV

Sequence | SH2 binding enrichment (SHP2-C SH2) | SH2 binding enrichment (Grb2 SH2) | SH2 binding enrichment (c-Src SH2) | phosphorylation enrichment (c-Src) | phosphorylation enrichment (Fyn) | phosphorylation enrichment (c-Abl (mouse)) | phosphorylation enrichment (FGFR1) | phosphorylation enrichment (FGFR3) | phosphorylation enrichment (Fer (mouse)) | phosphorylation enrichment (EPHB2) | phosphorylation enrichment (Jak2) | phosphorylation enrichment (AncSZ) | phosphorylation enrichment (Hck) | phosphorylation enrichment (MERTK) | phosphorylation enrichment (Fes) | phosphorylation enrichment (EPHB1)
IFRASYVPFAA [RBM47_Y541_G538R_YF] | 0.681 | 0.8 | 0.542 | 0.384 | 0.463 | 0.527 | 0.508 | 0.635 | 0.388 | 0.548 | 0.784 | 0.859 | 0.506 | 0.389 | 1.04 | 0.645
IGCHAYGDQFR [IDH1_Y135_R132C_YF] | 0.577 | 0.825 | 0.516 | 0.611 | 0.495 | 0.82 | 0.529 | 0.659 | 0.55 | 0.532 | 0.933 | 0.933 | 0.51 | 0.497 | 1.04 | 0.516
IGNGFYFRVFS [MYBPC3_Y1136_YF] | 1.06 | 0.964 | 0.466 | 0.361 | 0.365 | 0.818 | 0.438 | 0.756 | 0.519 | 0.568 | 1.43 | 1.05 | 0.45 | 0.374 | 1.38 | 0.64
IGVDSYSVCKR [RPS6KA3_Y433_G431D] | 0.627 | 0.908 | 0.971 | 0.322 | 0.347 | 0.417 | 0.381 | 0.405 | 0.366 | 0.418 | 0.462 | 0.537 | 0.387 | 0.338 | 0.577 | 0.402
IHADIYRWFNI [MARS1_Y344] | 1.17 | 1.65 | 1.19 | 3.77 | 2.23 | 6.74 | 9.43 | 6.99 | 8.95 | 0.6 | 1.12 | 1.22 | 2.14 | 5 | 1.42 | 0.716
IHYPPYTDWNQ [ALDH3B2_Y365] | 0.71 | 0.883 | 1.25 | 0.573 | 0.512 | 0.938 | 1.14 | 0.881 | 2.21 | 0.676 | 0.736 | 0.889 | 0.655 | 0.429 | 0.933 | 0.527
IIRFNYLLDVL [FGFR4_Y237_S232I_YF] | 2.19 | 2.13 | 1.13 | 0.525 | 0.513 | 0.996 | 0.809 | 0.763 | 0.47 | 0.478 | 0.89 | 1.2 | 0.522 | 0.465 | 1.31 | 0.688
IKKFKYGIEEH [GJA1_Y137] | 0.61 | 0.644 | 0.502 | 0.336 | 0.374 | 0.498 | 0.4 | 0.476 | 0.382 | 0.497 | 0.582 | 0.836 | 0.402 | 0.323 | 0.697 | 0.42
IKKLIYVYLVI [JAGN1_Y42_H44Y] | 1.06 | 1.4 | 0.612 | 0.475 | 0.412 | 0.955 | 0.351 | 0.452 | 0.323 | 0.411 | 0.817 | 0.873 | 0.43 | 0.427 | 0.97 | 0.466
ILDEAYVMAGA [ERBB2_Y772_V777A] | 0.857 | 0.736 | 0.543 | 0.744 | 0.596 | 0.761 | 0.639 | 0.789 | 0.516 | 0.67 | 0.986 | 1.48 | 0.537 | 0.507 | 1.27 | 0.662
ILTLKYPIEHG [ACTA1_Y71] | 0.806 | 0.816 | 0.502 | 0.376 | 0.437 | 0.57 | 0.47 | 0.592 | 0.391 | 0.485 | 0.584 | 0.716 | 0.453 | 0.391 | 0.78 | 0.476
ILTLKYPIELG [ACTA1_Y71_H75L] | 0.94 | 1.14 | 0.731 | 0.352 | 0.435 | 0.476 | 0.47 | 0.601 | 0.457 | 0.572 | 0.74 | 0.886 | 0.518 | 0.352 | 0.986 | 0.578
INMKKYCKKDF [NTN1_Y490_YF] | 1.13 | 0.953 | 0.807 | 0.491 | 0.438 | 0.734 | 0.56 | 0.757 | 0.572 | 0.522 | 0.689 | 0.854 | 0.437 | 0.659 | 0.948 | 0.45
IPGMEYLVSII [TNC_Y1775_V1773M] | 1.15 | 0.991 | 0.641 | 0.583 | 0.612 | 0.825 | 0.72 | 0.889 | 0.722 | 0.855 | 1.11 | 1.44 | 0.522 | 0.565 | 1.41 | 0.65
IRQDHYESLKE [MTR_Y921] | 0.771 | 0.961 | 5.75 | 0.48 | 0.494 | 0.56 | 0.45 | 0.693 | 0.483 | 0.482 | 0.733 | 0.755 | 0.594 | 0.509 | 0.873 | 0.529
ISISPYPAILH [IFT80_Y588_T586S] | 0.45 | 0.724 | 0.408 | 0.358 | 0.343 | 0.557 | 0.341 | 0.547 | 0.418 | 0.401 | 0.765 | 1.01 | 0.377 | 0.354 | 0.961 | 0.428
ISKKHYAGLLF [POLD1_Y809_R808H] | 12.4 | 1.22 | 2.04 | 0.436 | 0.42 | 0.521 | 0.468 | 0.643 | 0.469 | 0.381 | 0.636 | 0.545 | 0.46 | 0.456 | 0.671 | 0.317

Sequence | SH2 binding enrichment (SHP2-C SH2) | SH2 binding enrichment (Grb2 SH2) | SH2 binding enrichment (c-Src SH2) | phosphorylation enrichment (c-Src) | phosphorylation enrichment (Fyn) | phosphorylation enrichment (c-Abl (mouse)) | phosphorylation enrichment (FGFR1) | phosphorylation enrichment (FGFR3) | phosphorylation enrichment (Fer (mouse)) | phosphorylation enrichment (EPHB2) | phosphorylation enrichment (Jak2) | phosphorylation enrichment (AncSZ) | phosphorylation enrichment (Hck) | phosphorylation enrichment (MERTK) | phosphorylation enrichment (Fes) | phosphorylation enrichment (EPHB1)
ITLPIYTKGSE [ANK2_Y1455_E1458G] | 0.715 | 0.78 | 0.392 | 0.529 | 0.581 | 0.446 | 0.392 | 0.502 | 0.451 | 0.478 | 0.571 | 0.63 | 0.645 | 0.481 | 0.759 | 0.599
ITRDIYETDFF [INSR_Y1185_M1180I_YF] | 0.485 | 0.83 | 1.12 | 1.75 | 1.46 | 0.698 | 0.539 | 0.738 | 0.983 | 0.711 | 1.16 | 1.44 | 1.12 | 1.26 | 1.25 | 0.803
ITVPAYFNDLQ [HSPA9_Y196_S200L] | 0.722 | 1.15 | 0.583 | 0.468 | 0.452 | 0.766 | 0.555 | 0.77 | 0.524 | 0.495 | 1.15 | 1.13 | 0.538 | 0.431 | 1.3 | 0.705
IVGRLYRLLTE [SETX_Y1978_L1976R] | 0.734 | 1.05 | 0.738 | 0.331 | 0.376 | 0.676 | 0.418 | 0.644 | 0.37 | 0.494 | 0.954 | 1.1 | 0.387 | 0.396 | 1.12 | 0.481
IVLRSYPASGH [NID2_Y449] | 0.831 | 0.716 | 0.533 | 0.415 | 0.481 | 0.511 | 0.392 | 0.596 | 0.479 | 0.451 | 0.682 | 0.726 | 0.415 | 0.493 | 0.817 | 0.532
IVRSLYEDVED [VHL_Y185_L188V] | 0.63 | 0.937 | 11.8 | 0.51 | 0.488 | 0.834 | 0.502 | 0.674 | 1.69 | 0.701 | 1.21 | 1.3 | 0.526 | 0.458 | 1.26 | 0.611
IVRSRYEDLED [VHL_Y185_L184R] | 0.602 | 0.897 | 0.413 | 0.585 | 0.693 | 0.968 | 0.664 | 0.704 | 0.619 | 0.759 | 0.964 | 1.37 | 0.651 | 0.788 | 0.946 | 0.675
IYHLSYIHNCE [PDE6B_Y227_L228I] | 1.27 | 1.35 | 0.819 | 2.65 | 2.78 | 4.3 | 2.65 | 2.16 | 1.67 | 0.724 | 1.18 | 1.3 | 1.81 | 4.22 | 1.38 | 0.783
IYRASYYRRGD [LTK_Y676] | 0.471 | 0.728 | 0.439 | 0.666 | 0.594 | 0.927 | 0.481 | 0.555 | 0.453 | 0.422 | 0.621 | 0.821 | 1.2 | 0.763 | 0.757 | 0.398
KACNPYKPPGP | 0.893 | 1.01 | 0.76 | 0.699 | 0.521 | 0.524 | 0.462 | 0.589 | 0.521 | 0.478 | 0.881 | 0.629 | 0.496 | 0.543 | 0.663 | 0.464
KAPVDYIRKLQ [MITF_Y360_S357P] | 0.621 | 0.912 | 0.489 | 0.406 | 0.338 | 0.475 | 0.328 | 0.423 | 0.365 | 0.436 | 0.576 | 0.547 | 0.346 | 0.399 | 0.616 | 0.416
KASIMYPSNNC [CXCL11_Y52] | 0.504 | 0.952 | 0.589 | 0.394 | 0.446 | 0.518 | 0.484 | 0.49 | 0.359 | 0.472 | 0.604 | 0.673 | 0.459 | 0.368 | 0.786 | 0.528
KDHPDYEFQPR [SOX9_Y172_K173E_YF] | 0.73 | 0.863 | 0.568 | 0.425 | 0.448 | 0.509 | 0.712 | 0.614 | 0.475 | 0.585 | 0.665 | 1.81 | 0.504 | 0.319 | 0.723 | 1.05
KDQGTYEDFVE [MYL6_Y86_YF] | 0.247 | 0.509 | 1.46 | 1.31 | 0.616 | 1.97 | 0.906 | 1.35 | 0.911 | 0.59 | 1.94 | 1.31 | 0.966 | 1.12 | 2.32 | 0.569
KFDLMYAKWAF [TUBA3E_Y399] | 0.919 | 1.24 | 1.18 | 1.98 | 1.43 | 1.68 | 0.669 | 0.866 | 5.85 | 0.784 | 1 | 1.18 | 2.16 | 3.02 | 1.26 | 0.783
KFLVGYEMLAQ [GALT_Y339_M336L] | 1.06 | 1.01 | 2.72 | 0.378 | 0.386 | 0.578 | 0.408 | 0.661 | 0.395 | 0.434 | 0.747 | 0.701 | 0.416 | 0.323 | 0.977 | 0.434
